Laboratory results published in US20140170142A1 (AstraZeneca / MedImmune, published 2014).

T1: mouse FcRn (mouse, UniProt Q61559 22-297; P01887 21-119, limits assumed)
T1 construct: also called mFcRn
T1 sequence (looked up): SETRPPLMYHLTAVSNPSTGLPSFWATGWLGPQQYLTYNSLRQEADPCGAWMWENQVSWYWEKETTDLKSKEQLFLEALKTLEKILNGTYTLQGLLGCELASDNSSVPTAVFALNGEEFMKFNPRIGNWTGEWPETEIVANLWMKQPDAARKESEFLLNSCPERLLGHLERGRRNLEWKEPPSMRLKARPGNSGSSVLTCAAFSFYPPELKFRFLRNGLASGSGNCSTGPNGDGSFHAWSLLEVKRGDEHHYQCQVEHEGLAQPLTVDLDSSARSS
T1 sequence (b2m, looked up): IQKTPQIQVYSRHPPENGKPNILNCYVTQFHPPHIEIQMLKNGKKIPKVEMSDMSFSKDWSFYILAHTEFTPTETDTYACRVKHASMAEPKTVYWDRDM


What was measured:
mouse serum albumin [1] = molecular target: T2, mouse serum albumin (mouse, UniProt P07724 25-608); experiment: SPR (BIAcore 3000), CM5 chip, PBS pH 7.5
T2 construct: also called MSA; mouse albumin
Source text: (§1) The interaction between different ABD-Fc variants and MSA (mouse serum albumin), HSA (human serum albumin) and mFcRn were monitored by surface plasmon resonance detection using BIAcore 3000 instrument. (GE Healthcare). First, ABD-Fc variants were coupled to dextran matrix of CM5 sensor chip using an Amine Coupling Kit at a surface density of 1000-2000 RU according to manufacturer's instructions. Human and mouse albumin as well mouse FcRn were flown over in a test-bind experiments at the concentrations ranging from 0.1-10 μM at a flow rate of 5 μl/min. Dilution and binding experiments were carried out in PBS pH7.5; 150 mM NaCl; 0.005% Tween for albumin binding and 50 mM NaPhosphate pH6.0; 150 mM NaCl; 0.005% Tween for mouse FcRn. Subsequently, the format of the Biacore experiments were flipped where mouse and human albumin as well as mouse FcRn were coupled to a CM5 chip using Amine Coupling Kit at surface densities ranging from 500-1500 RU. The ABD-Fc variants were flown over at three different concentrations 0.5; 1 and 10 μM. The latter format was more successful due to higher signal and self-consistency.

mouse serum albumin [2] = molecular target: T2, mouse serum albumin; experiment: SPR (BIAcore 3000), CM5 chip, three concentrations of injectant
Source text: as §1

human serum albumin [3] = molecular target: T3, human serum albumin (human, UniProt P02768 25-609); experiment: as above
T3 construct: also called HSA; human albumin
T3 sequence (P02768 25-609 limits assumed): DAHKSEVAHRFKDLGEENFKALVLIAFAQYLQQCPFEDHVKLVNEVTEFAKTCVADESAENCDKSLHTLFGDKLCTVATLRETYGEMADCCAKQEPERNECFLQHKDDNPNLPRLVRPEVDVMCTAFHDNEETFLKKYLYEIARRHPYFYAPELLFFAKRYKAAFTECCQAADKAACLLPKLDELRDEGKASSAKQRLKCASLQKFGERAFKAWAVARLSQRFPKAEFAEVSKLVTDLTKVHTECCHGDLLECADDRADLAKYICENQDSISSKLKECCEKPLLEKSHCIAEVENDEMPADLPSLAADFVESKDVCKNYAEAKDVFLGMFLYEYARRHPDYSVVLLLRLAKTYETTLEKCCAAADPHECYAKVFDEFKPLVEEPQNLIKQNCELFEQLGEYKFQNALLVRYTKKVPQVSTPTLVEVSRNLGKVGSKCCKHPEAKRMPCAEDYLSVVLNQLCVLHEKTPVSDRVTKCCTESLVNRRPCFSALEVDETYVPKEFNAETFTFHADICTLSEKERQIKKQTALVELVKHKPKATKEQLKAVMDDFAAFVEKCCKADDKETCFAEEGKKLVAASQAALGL
Source text: as §1

mouse FcRn = molecular target: T1, mouse FcRn; experiment: SPR (BIAcore 3000), CM5 chip, pH 6.0, three concentrations of injectant
Source text: as §1

human serum albumin [4] = molecular target: T3, human serum albumin; experiment: SPR (BIAcore 3000), CM5 chip, PBS pH 7.5
Source text: as §1

Binder	binding result (mouse serum albumin [1])	binding result (mouse serum albumin [2])	binding result (human serum albumin [3])	binding result (mouse FcRn)	binding result (human serum albumin [4])
ABD-Fc: fusion of unmodified ABD and unmodified Fc (Fc fusion, also called wild type ABD-Fc; ABD-Fc parental construct) LAEAKVLANRELDKYGVSDYYKNLINNAKTVEGVKALIDEILAALPGAEPRGPTIKPCPPCKCPAPNLLGGPSVFIFPPKIKDVLMISLSPIVTCVVVDVSEDDPDVQISWFVNNVEVHTAQTQTHREDYNSTLRVVSALPIQHQDWMSGKEFKCKVNNKDLPAPIERTISKPKGSVRAPQVYVLPPPEEEMTKKQVTLTCMVTDFMPEDIYVEWTNNGKTELNYKNTEPVLDSDGSYFMYSKLRVEKKNWVERNSYSCSVVHEGLHNHHTTKSFSRTPGKGGGGSEQKLISEEDLGGGGSHHHHHH	binds				
ABD-TM-Fc: triple knockout mutations of ABD residues S18A; T20A and Y21A (Fc fusion, T20A/Y20A; Y21A)) LAEAKVLANRELDKYGVADAYANLINNAKTVEGVKALIDEILAALPGAEPRGPTIKPCPPCKCPAPNLLGGPSVFIFPPKIKDVLMISLSPIVTCVVVDVSEDDPDVQISWFVNNVEVHTAQTQTHREDYNSTLRVVSALPIQHQDWMSGKEFKCKVNNKDLPAPIERTISKPKGSVRAPQVYVLPPPEEEMTKKQVTLTCMVTDFMPEDIYVEWTNNGKTELNYKNTEPVLDSDGSYFMYSKLRVEKKNWVERNSYSCSVVHEGLHNHHTTKSFSRTPGKGGGGSEQKLISEEDLGGGGSHHHHHH		no binding (tested: 10 µM)	no binding (tested: 10 µM)		
ABD-Fc (His 310): knockout substitution in Fc region of Igg2A H310A (Fc fusion, also called ABD-(His310TM)-Fc) LAEAKVLANRELDKYGVSDYYKNLINNAKTVEGVKALIDEILAALPGAEPRGPTIKPCPPCKCPAPNLLGGPSVFIFPPKIKDVLMISLSPIVTCVVVDVSEDDPDVQISWFVNNVEVHTAQTQTHREDYNSTLRVVSALPIQAQDWMSGKEFKCKVNNKDLPAPIERTISKPKGSVRAPQVYVLPPPEEEMTKKQVTLTCMVTDFMPEDIYVEWTNNGKTELNYKNTEPVLDSDGSYFMYSKLRVEKKNWVERNSYSCSVVHEGLHNHHTTKSFSRTPGKGGGGSEQKLISEEDLGGGGSHHHHHH	binds			no binding (tested: 10 µM)	binds
